# Data reported in paper PMC5841360 (2018).
# B1: his6-cortactin, wild type (purified) [not stated] / GST-GluA2 C-terminal tail [not stated] (parent complex)
# chain 1: not shown
# chain 2: EFCYKSRAEAKRMKVAKNPQNINPSSSQNSQNFATYKEGYNVYGIESVKI
# Variants of: B1
# Experiment: GST pulldown, Western blot quantification; Input is 0.2% of offered protein; n = 3-6; read off a plot
row,Variant,percent of parent
1,"chain 2 K17A, chain 2 N18A",~76
2,"chain 2 K14A, chain 2 V15A",~37
3,chain 2 K11A,~22

# The next lines start with the values.
row,percent of parent,Variant
1,~83,"chain 2 P19A, chain 2 Q20A"
2,~55,"chain 2 R12A, chain 2 M13A"
